Sequences and labels used below:
T1: Extracellular domain (ECD) of the canine IL-4 receptor alpha-V5 epitope-AviTag-His Tag (canine)
T1 construct: monomeric form isolated by size exclusion; also called canine IL-4RA-V5-Avi-His; canine IL-4RA
T1 chain: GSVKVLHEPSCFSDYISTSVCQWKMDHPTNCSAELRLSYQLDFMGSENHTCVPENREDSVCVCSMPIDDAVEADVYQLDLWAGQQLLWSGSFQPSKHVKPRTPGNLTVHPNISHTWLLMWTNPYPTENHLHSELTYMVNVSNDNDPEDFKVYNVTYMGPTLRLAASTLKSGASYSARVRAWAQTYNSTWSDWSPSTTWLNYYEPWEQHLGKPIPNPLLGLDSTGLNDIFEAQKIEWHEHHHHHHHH

B1: TB640_005 Fab-SASA VH-K103I (Fab, V domains shown)
VH: EVQLVESGGDLVKPGGSLRLSCVASGFTFRDYAMTWVRQAPGKGLQWVSLISGSGGKTYYADAVKGRFTISRDNAKNTLYLQMNSLRAEDTAVYYCAVDRLTITIRPQYYGLWVWGQGTLVTVSS
VL: DIVMTQTPLSLSVSPGETASISCRSSQSLLYSIGYNYLDWYLQKPGQSPQGLIYLGSKRASGVPDRFSGSGSGTDFTLRISRVEANDTGVYYCMQGLQSPLTFGQGTKLEIKR
notes: not shown: SASA tag then His-tag
B2: TB640_005 Fab-SASA VH-V114G (Fab, V domains shown)
VH: EVQLVESGGDLVKPGGSLRLSCVASGFTFRDYAMTWVRQAPGKGLQWVSLISGSGGKTYYADAVKGRFTISRDNAKNTLYLQMNSLRAEDTAVYYCAVDRLTKTIRPQYYGLWGWGQGTLVTVSS
VL: DIVMTQTPLSLSVSPGETASISCRSSQSLLYSIGYNYLDWYLQKPGQSPQGLIYLGSKRASGVPDRFSGSGSGTDFTLRISRVEANDTGVYYCMQGLQSPLTFGQGTKLEIKR
notes: as for B1
B3: TB640_005 Fab-SASA VH-L112M (Fab, V domains shown)
VH: EVQLVESGGDLVKPGGSLRLSCVASGFTFRDYAMTWVRQAPGKGLQWVSLISGSGGKTYYADAVKGRFTISRDNAKNTLYLQMNSLRAEDTAVYYCAVDRLTKTIRPQYYGMWVWGQGTLVTVSS
VL: DIVMTQTPLSLSVSPGETASISCRSSQSLLYSIGYNYLDWYLQKPGQSPQGLIYLGSKRASGVPDRFSGSGSGTDFTLRISRVEANDTGVYYCMQGLQSPLTFGQGTKLEIKR
notes: as for B1
B4: TB640_005 Fab-SASA VH-T28N (Fab, V domains shown)
VH: EVQLVESGGDLVKPGGSLRLSCVASGFNFRDYAMTWVRQAPGKGLQWVSLISGSGGKTYYADAVKGRFTISRDNAKNTLYLQMNSLRAEDTAVYYCAVDRLTKTIRPQYYGLWVWGQGTLVTVSS
VL: DIVMTQTPLSLSVSPGETASISCRSSQSLLYSIGYNYLDWYLQKPGQSPQGLIYLGSKRASGVPDRFSGSGSGTDFTLRISRVEANDTGVYYCMQGLQSPLTFGQGTKLEIKR
notes: as for B1
B5: TB640_005 Fab-SASA VH-V114Q (Fab, V domains shown)
VH: EVQLVESGGDLVKPGGSLRLSCVASGFTFRDYAMTWVRQAPGKGLQWVSLISGSGGKTYYADAVKGRFTISRDNAKNTLYLQMNSLRAEDTAVYYCAVDRLTKTIRPQYYGLWQWGQGTLVTVSS
VL: DIVMTQTPLSLSVSPGETASISCRSSQSLLYSIGYNYLDWYLQKPGQSPQGLIYLGSKRASGVPDRFSGSGSGTDFTLRISRVEANDTGVYYCMQGLQSPLTFGQGTKLEIKR
notes: as for B1
B6: TB640_005 Fab-SASA VH-V114K (Fab, V domains shown)
VH: EVQLVESGGDLVKPGGSLRLSCVASGFTFRDYAMTWVRQAPGKGLQWVSLISGSGGKTYYADAVKGRFTISRDNAKNTLYLQMNSLRAEDTAVYYCAVDRLTKTIRPQYYGLWKWGQGTLVTVSS
VL: DIVMTQTPLSLSVSPGETASISCRSSQSLLYSIGYNYLDWYLQKPGQSPQGLIYLGSKRASGVPDRFSGSGSGTDFTLRISRVEANDTGVYYCMQGLQSPLTFGQGTKLEIKR
notes: as for B1
B7: TB640_005 Fab-SASA VH-V114H (Fab, V domains shown)
VH: EVQLVESGGDLVKPGGSLRLSCVASGFTFRDYAMTWVRQAPGKGLQWVSLISGSGGKTYYADAVKGRFTISRDNAKNTLYLQMNSLRAEDTAVYYCAVDRLTKTIRPQYYGLWHWGQGTLVTVSS
VL: DIVMTQTPLSLSVSPGETASISCRSSQSLLYSIGYNYLDWYLQKPGQSPQGLIYLGSKRASGVPDRFSGSGSGTDFTLRISRVEANDTGVYYCMQGLQSPLTFGQGTKLEIKR
notes: as for B1
B8: TB640_005 Fab-SASA VH-L50F (Fab, V domains shown)
VH: EVQLVESGGDLVKPGGSLRLSCVASGFTFRDYAMTWVRQAPGKGLQWVSFISGSGGKTYYADAVKGRFTISRDNAKNTLYLQMNSLRAEDTAVYYCAVDRLTKTIRPQYYGLWVWGQGTLVTVSS
VL: DIVMTQTPLSLSVSPGETASISCRSSQSLLYSIGYNYLDWYLQKPGQSPQGLIYLGSKRASGVPDRFSGSGSGTDFTLRISRVEANDTGVYYCMQGLQSPLTFGQGTKLEIKR
notes: as for B1
B9: TB640_005 Fab-SASA VH-Y110L (Fab, V domains shown)
VH: EVQLVESGGDLVKPGGSLRLSCVASGFTFRDYAMTWVRQAPGKGLQWVSLISGSGGKTYYADAVKGRFTISRDNAKNTLYLQMNSLRAEDTAVYYCAVDRLTKTIRPQYLGLWVWGQGTLVTVSS
VL: DIVMTQTPLSLSVSPGETASISCRSSQSLLYSIGYNYLDWYLQKPGQSPQGLIYLGSKRASGVPDRFSGSGSGTDFTLRISRVEANDTGVYYCMQGLQSPLTFGQGTKLEIKR
notes: as for B1
B10: TB640_005 Fab-SASA VH-T28P (Fab, V domains shown)
VH: EVQLVESGGDLVKPGGSLRLSCVASGFPFRDYAMTWVRQAPGKGLQWVSLISGSGGKTYYADAVKGRFTISRDNAKNTLYLQMNSLRAEDTAVYYCAVDRLTKTIRPQYYGLWVWGQGTLVTVSS
VL: DIVMTQTPLSLSVSPGETASISCRSSQSLLYSIGYNYLDWYLQKPGQSPQGLIYLGSKRASGVPDRFSGSGSGTDFTLRISRVEANDTGVYYCMQGLQSPLTFGQGTKLEIKR
notes: as for B1
B11: TB640_005 Fab-SASA VH-Y110R (Fab, V domains shown)
VH: EVQLVESGGDLVKPGGSLRLSCVASGFTFRDYAMTWVRQAPGKGLQWVSLISGSGGKTYYADAVKGRFTISRDNAKNTLYLQMNSLRAEDTAVYYCAVDRLTKTIRPQYRGLWVWGQGTLVTVSS
VL: DIVMTQTPLSLSVSPGETASISCRSSQSLLYSIGYNYLDWYLQKPGQSPQGLIYLGSKRASGVPDRFSGSGSGTDFTLRISRVEANDTGVYYCMQGLQSPLTFGQGTKLEIKR
notes: as for B1
B12: TB640_005 Fab-SASA VH-L101K (Fab, V domains shown)
VH: EVQLVESGGDLVKPGGSLRLSCVASGFTFRDYAMTWVRQAPGKGLQWVSLISGSGGKTYYADAVKGRFTISRDNAKNTLYLQMNSLRAEDTAVYYCAVDRKTKTIRPQYYGLWVWGQGTLVTVSS
VL: DIVMTQTPLSLSVSPGETASISCRSSQSLLYSIGYNYLDWYLQKPGQSPQGLIYLGSKRASGVPDRFSGSGSGTDFTLRISRVEANDTGVYYCMQGLQSPLTFGQGTKLEIKR
notes: as for B1
B13: TB640_005 Fab-SASA VH-K103R (Fab, V domains shown)
VH: EVQLVESGGDLVKPGGSLRLSCVASGFTFRDYAMTWVRQAPGKGLQWVSLISGSGGKTYYADAVKGRFTISRDNAKNTLYLQMNSLRAEDTAVYYCAVDRLTRTIRPQYYGLWVWGQGTLVTVSS
VL: DIVMTQTPLSLSVSPGETASISCRSSQSLLYSIGYNYLDWYLQKPGQSPQGLIYLGSKRASGVPDRFSGSGSGTDFTLRISRVEANDTGVYYCMQGLQSPLTFGQGTKLEIKR
notes: as for B1
B14: TB640_005 Fab-SASA VH-S52N (Fab, V domains shown)
VH: EVQLVESGGDLVKPGGSLRLSCVASGFTFRDYAMTWVRQAPGKGLQWVSLINGSGGKTYYADAVKGRFTISRDNAKNTLYLQMNSLRAEDTAVYYCAVDRLTKTIRPQYYGLWVWGQGTLVTVSS
VL: DIVMTQTPLSLSVSPGETASISCRSSQSLLYSIGYNYLDWYLQKPGQSPQGLIYLGSKRASGVPDRFSGSGSGTDFTLRISRVEANDTGVYYCMQGLQSPLTFGQGTKLEIKR
notes: as for B1
B15: TB640_005 Fab-SASA VH-L101M (Fab, V domains shown)
VH: EVQLVESGGDLVKPGGSLRLSCVASGFTFRDYAMTWVRQAPGKGLQWVSLISGSGGKTYYADAVKGRFTISRDNAKNTLYLQMNSLRAEDTAVYYCAVDRMTKTIRPQYYGLWVWGQGTLVTVSS
VL: DIVMTQTPLSLSVSPGETASISCRSSQSLLYSIGYNYLDWYLQKPGQSPQGLIYLGSKRASGVPDRFSGSGSGTDFTLRISRVEANDTGVYYCMQGLQSPLTFGQGTKLEIKR
notes: as for B1
B16: TB640_005 Fab-SASA VH-L50M (Fab, V domains shown)
VH: EVQLVESGGDLVKPGGSLRLSCVASGFTFRDYAMTWVRQAPGKGLQWVSMISGSGGKTYYADAVKGRFTISRDNAKNTLYLQMNSLRAEDTAVYYCAVDRLTKTIRPQYYGLWVWGQGTLVTVSS
VL: DIVMTQTPLSLSVSPGETASISCRSSQSLLYSIGYNYLDWYLQKPGQSPQGLIYLGSKRASGVPDRFSGSGSGTDFTLRISRVEANDTGVYYCMQGLQSPLTFGQGTKLEIKR
notes: as for B1

The test addresses T1, Extracellular domain (ECD) of the …. In words: SPR, Fab-SASA captured on BSA.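 Note: biacore T200 SPR, Fab-SASA variants from E. coli conditioned medium captured on BSA-coated CM5 chip, canine IL-4RA injected 120 s then 420 s dissociation, 1:1 model fit.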 In general terms: Surface plasmon resonance follows binding to a sensor surface in real time, without labels.
Experimental: Forty-four PML clones were selected from each library for expression in E. coli in 96 deep-well plates by inoculating into 2YT medium and inducing with 0.2 mM IPTG overnight at room temperature. The Fab secreted in the medium was analyzed for binding activity by completing an ELISA. […] The 39 unique clones were confirmed by an off-rate screening assay in an SPR assay performed on a Biacore T200. For the SPR analyses, bovine serum albumin (BSA) was immobilized to CM5 sensor chip. The sensor chip surface was activated with 50 mmol/L H-Hydroxysuccinimide and 200 mmol/L 1-ethyl-3-(3-dimethylaminopropyl) carbodiimide hydrochloride for 420 s. Afterwards, BSA diluted in 10 mM sodium acetate, pH 4.5 was injected. After the amine coupling reaction, the remaining active coupling sites on the chip surface were blocked with 1 mM ethanolamine hydrochloride. The selected Fab-SASA variants in conditioned medium were captured on the BSA-coated chips. The running buffer was HBS-EP (10 mM HEPES 500 mM NaCl, 3 mM EDTA, 0.05% Tween 20, pH 7.4). After equilibration, canine IL-4RA was injected for 120 seconds (association phase) followed by the injection of running buffer for 420 sec (dissociation phase). The off-rates of the Fab-SASA clones were obtained from fitting the experimental data locally to a 1:1 interaction model using the Biacore T200 evaluation software.
For the molecule B1, the Kd (in general, the concentration at which binding is half-saturated) came to 18.6 nM; the “Ratio WT-kd/clone-kd” value came to 0.99; the koff – broadly, the rate constant with which the complex falls apart – turned out to be 0.000967 s⁻¹; the kon (in general, a measure of how fast the partners come together) was 51900 M⁻¹ s⁻¹.
Taken in the same sequence, the figures for B2 were 3.5 nM, 1.47, 0.000647 s⁻¹ and 185000 M⁻¹ s⁻¹.
The like results for B3 were, in that order, 13.7 nM, 1.97, 0.000483 s⁻¹ and 35300 M⁻¹ s⁻¹.
Taken in the same sequence, the figures for B4 were 11.3 nM, 1.22, 0.00078 s⁻¹ and 69200 M⁻¹ s⁻¹.
Regarding B5, the Kd is 7.16 nM, the “Ratio WT-kd/clone-kd” value was found to be 1.41, the koff worked out at 0.000674 s⁻¹ and the on-rate constant (kon) is 94100 M⁻¹ s⁻¹.
Regarding B6, binding was characterised by a dissociation constant (Kd) of 5.97 nM, the “Ratio WT-kd/clone-kd” value came to 1.33, the koff turned out to be 0.000717 s⁻¹ and the on-rate constant (kon) stood at 120000 M⁻¹ s⁻¹.
The like results for B7 were, in that order, 5.47 nM, 1.62, 0.000589 s⁻¹ and 108000 M⁻¹ s⁻¹.
For B8, binding was characterised by a dissociation constant (Kd) of 15 nM, the “Ratio WT-kd/clone-kd” value was found to be 0.49, the koff turned out to be 0.00193 s⁻¹ and the kon stood at 128000 M⁻¹ s⁻¹.
On to B9, for which the affinity, expressed as Kd, was 6.65 nM; the “Ratio WT-kd/clone-kd” value stood at 0.71; the koff turned out to be 0.00135 s⁻¹; the kon was 202000 M⁻¹ s⁻¹.
The like results for B10 were, in that order, 8.95 nM, 1.21, 0.000786 s⁻¹ and 87800 M⁻¹ s⁻¹.
On to B11, for which the Kd worked out at 9.6 nM, the “Ratio WT-kd/clone-kd” value came to 0.62, the koff was 0.00153 s⁻¹ and the kon was 159000 M⁻¹ s⁻¹.
Taken in the same sequence, the figures for B12 were 7.1 nM, 1.53, 0.000623 s⁻¹ and 87800 M⁻¹ s⁻¹.
As to B13, the affinity, expressed as Kd, was 7.13 nM; the “Ratio WT-kd/clone-kd” value came to 1.5; the koff was 0.000636 s⁻¹; the kon was 89200 M⁻¹ s⁻¹.
Taken in the same sequence, the figures for B14 were 1.83 nM, 7.88, 0.000112 s⁻¹ and 66200 M⁻¹ s⁻¹.
Taken in the same sequence, the figures for B15 were 7.73 nM, 1.34, 0.000713 s⁻¹ and 92300 M⁻¹ s⁻¹.
The like results for B16 were, in that order, 8.5 nM, 0.79, 0.0012 s⁻¹ and 141000 M⁻¹ s⁻¹.

For the origin of these results see US20250188176A1 (INVETX, published 2025).
